The test system of data set [1] is human mammary cancer MDA-MB-231-RFP xenografts. In words: In vivo PDT of MDA-MB-231-RFP xenografts. On the set-up: species or system CD-1 nude male mice. The settings on record: 7.5 mg/kg i.v. The protocol: For the PDT experiments, MDA-MB-231 RFP cells (4×10^6) were implanted subcutaneously on the backs of the mice and tumors developed to the treatment size (6-8 mm) within 2-3 weeks.
The tumors were illuminated for 10 min. The drug light interval used was 8 hr post drug injection. Transdermal illumination through the mouse skin with 755 nm diode laser at 100 mW/cm^2 (CeramOptec, Germany) was used. After the treatment, the mice were returned to the cage. […] In the light control group, the mice were illuminated for 10 min with 100 mW/cm^2. During the first 2 days post PDT, as needed, the mice received analgesia (2.5 mg/kg Flunexin daily) and 3 days Oxycode in the drinking water. The end point of animal survival is when the size of the tumor reaches 10% of animal weight. Mice are sacrificed at this time (up to 90 days) by cervical dislocation.
FIGS. 35A-35B show two representative examples to local response of human MDA-MB-231-RFP to PDT. […] 35A—Photographs taken from day 0 (before treatment) and after treatment at 1, 4, 7, 12 and 90 days. […] 35B—In vivo whole-body red fluorescence imaging of CD-1 nude male mice bearing MDA-MB-231-RFP orthotopic tumor.

For data set [2], the system named is orthotopic human breast MDA-MB-231-RFP primary tumor. In words: Whole-body NIR fluorescence imaging of accumulation in orthotopic MDA-MB-231-RFP tumor. In kind it is in vivo, CD-1 nude female mice. The settings on record: 15 mg/kg i.v. The protocol:
RFP fluorescence, in units of photons/sec, was detected using 525/50 nm and 612/75 nm filter sets for excitation and emission, respectively, with one second integration time. NIR fluorescence of the different photosensitizers, in units of photons/sec, was detected using 680/30 nm and 847/75 nm filter sets for excitation and emission, respectively, at an integration time of five seconds. Background fluorescence for all quantitative analyses was calculated by recording the average fluorescence (photons/sec)/cm^2 from three animals in three different areas around and within the tumor of untreated animals provided with a similar diet for three days before measurements. Drug accumulation was determined following i.v. administration of molar equivalents of the photosensitizer to the tail vein of mice fed with a chlorophyll-free, purified diet for three days before administration (in order to reduce skin and food autofluorescence). Before imaging, mice were anesthetized by intraperitoneum injection of a 30 μl mixture of 85:15 ketamine:xylazine.
In order to study the accumulation of the photosensitizer in primary mammary tumors, the MDA-MB-231-RFP cells (4×10^6) were implanted orthotopicaly in the mammary pad of the mice. Tumors developed to the wanted size, bigger than 1 cm^3, within 3-4 weeks.
Tumor imaging main filter set comprised: excitation filter 500-550 nm, emission filter 575-650 nm; Background filter set for subtraction the tissue auto fluorescence: excitation filter 460-490 nm, emission filter 575-650 nm. Photosensitizer imaging main filter set: excitation filter 665-695 nm, emission filter 810-875 nm.
Images were taken at these time points post drug injection: 15 min, 1, 2, 3, 4.5, 6, 7.5, 9, 24 hr, 2, 3, 4, 5, 6, 7 days.

Data set [3] has as its system large MDA-MB-231-RFP tumors. In words: Biodistribution and pharmacokinetics (fluorescence of tissue extracts) in MDA-MB-231-RFP tumor-bearing mice. The settings on record: 15 mg/kg i.v. In kind it is in vivo, CD-1 nude female mice. As to the method: Mammary fat pads (left, bottom nipple) of female mice were inoculated with harvested MDA-MB-231-RFP human breast cancer cells (4×10^6 in […] saline). Tumors were classified as ‘small’ (˜100 mm^3) at one to two weeks from time of cell injection, or ‘large’ after three to four weeks (necrotic tumors, 250 to 500 mm^3). To avoid tumor burden, mice were sacrificed (cervical dislocation) when tumor size reached 10% of body weight or at 90 days post-implantation. External caliper measurements, length (L), width (W) and depth (D) were used to calculate in vivo tumor volume according to the formula: V=L/2·W/2·D/2·π·4/3.
Anesthetized mice were i.v. injected (tail vein) with the different photosensitizer (pigment) conjugates (control group: untreated). The mice were sacrificed at indicated time points and samples of the indicated organs and tissues (blood, tumor, intestine, liver, spleen, kidneys, testies, heart, lung, brain, skin, muscle and fat) were placed in pre-weighted vials and immediately frozen and stored at −20° in the dark until analyzed. Three methods were used for sample preparation: (1) Each sample was thawed and homogenized in DDW (1:10 w/v). Aliquots of the homogenate (500 μl) were lyophilized in Eppendorf test tubes. Then, 60 μl of HNO3 (70%, TraceSelect, Fluka) were added to each dry sample, incubated for 1 h at 90° C. and diluted with DDW to 3 ml. (2) Each sample was diluted (1:2 w/v) in HNO3 (70%, TraceSelect, Fluka). The samples were sonicated for 30 min in boiled water, and left for at least 48 h at room temperature. (3) Applied for assessment of non-metalated conjugates. Each sample was thawed and homogenized in methanol (100 mg tissue/ml) and extracted the next morning by centrifugation (13,000×g, five minutes) at room temperature. In methods (1) and (2), 140 μl from each sample was added to 3.36 ml DDW to give total volume of 3.5 ml and incubated for 1 h at 90° C. Pd concentrations were determined by ICP-MS. According to method (3), the supernatants were diluted in methanol by a factor of two and the drug concentration was determined by fluorescence measurements (Varian-Cary Eclipse spectrofluorimeter, Palo Alto, Calif., USA) at 750 nm (peak values). Drug concentrations were interpolated from a fluorescence calibration curve, based on predetermined drug concentrations using absorption spectroscopy.

In data set [4] the target is isolated αvβ3 integrin receptor (Homo sapiens, UniProt P05106+P06756). In words: Solid-phase receptor assay, Eu-RGD-4C binding competed by RGD-4C. The settings on record: 100 μM of RGD-4C; highest attenuation. The protocol: The binding of Eu-RGD-4C to isolated αvβ3 integrin receptor was determined using time-resolved fluorometry. Each well of a microtiter plate (Nunc MaxiSorb) was coated with 50 μl of purified receptor (1 μg/ml in PBS) by shaking at 4° C. overnight. The receptor solution was then removed, and each well was blocked with 200 μl of milk (1% w/v milk powder in PBS, 1 hr, room temperature). The plate was then washed with 200 μl of PBS once, and incubated for 1 h at 37° C. with increasing concentrations of RGD-4C in the presence of constant amount of Eu-RGD-4C (10 million F.U./well). The ligand/competitor solution was removed and each well was washed three times with 200 μl PBS. Enhancement solution was added (200 μl/well) to release the chelated Eu. […] Under these experimental conditions, 100 μM of RGD-4C reduced by 50% Eu-RGD-4C binding to the isolated receptor. This value represents the highest attenuation of the Eu-RGD-4C binding, even at RGD-4C highest concentrations.
Sequence of isolated αvβ3 integrin receptor (P06756 31-889 limits assumed): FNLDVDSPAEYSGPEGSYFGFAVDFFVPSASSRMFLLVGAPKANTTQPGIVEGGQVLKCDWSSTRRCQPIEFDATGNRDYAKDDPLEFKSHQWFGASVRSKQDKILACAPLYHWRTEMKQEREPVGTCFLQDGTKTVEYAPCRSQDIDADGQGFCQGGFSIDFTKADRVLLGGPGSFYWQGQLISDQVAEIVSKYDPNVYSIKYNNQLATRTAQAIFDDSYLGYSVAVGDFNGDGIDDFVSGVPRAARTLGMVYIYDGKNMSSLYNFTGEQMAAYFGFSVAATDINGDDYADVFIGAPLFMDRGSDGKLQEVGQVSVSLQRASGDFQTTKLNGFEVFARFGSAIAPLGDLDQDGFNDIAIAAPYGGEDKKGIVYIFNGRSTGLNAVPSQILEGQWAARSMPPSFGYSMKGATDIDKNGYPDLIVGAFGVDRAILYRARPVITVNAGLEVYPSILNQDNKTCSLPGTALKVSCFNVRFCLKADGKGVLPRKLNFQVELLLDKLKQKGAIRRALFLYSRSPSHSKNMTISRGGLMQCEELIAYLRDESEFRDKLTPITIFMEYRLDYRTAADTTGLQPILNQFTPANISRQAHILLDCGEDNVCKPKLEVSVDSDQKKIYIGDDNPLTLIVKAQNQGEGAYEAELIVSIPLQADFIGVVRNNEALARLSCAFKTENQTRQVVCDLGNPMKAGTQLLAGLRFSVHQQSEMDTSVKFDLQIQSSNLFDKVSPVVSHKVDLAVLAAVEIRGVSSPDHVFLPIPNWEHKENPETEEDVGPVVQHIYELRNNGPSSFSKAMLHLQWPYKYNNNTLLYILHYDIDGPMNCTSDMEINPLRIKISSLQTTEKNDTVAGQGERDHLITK
Sequence of isolated αvβ3 integrin receptor (P06756 891-1048 limits assumed): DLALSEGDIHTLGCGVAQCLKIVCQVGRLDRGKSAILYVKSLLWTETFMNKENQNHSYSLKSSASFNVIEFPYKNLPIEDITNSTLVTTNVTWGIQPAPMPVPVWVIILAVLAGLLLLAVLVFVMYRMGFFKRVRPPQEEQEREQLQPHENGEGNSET
Sequence of isolated αvβ3 integrin receptor (P05106 27-788): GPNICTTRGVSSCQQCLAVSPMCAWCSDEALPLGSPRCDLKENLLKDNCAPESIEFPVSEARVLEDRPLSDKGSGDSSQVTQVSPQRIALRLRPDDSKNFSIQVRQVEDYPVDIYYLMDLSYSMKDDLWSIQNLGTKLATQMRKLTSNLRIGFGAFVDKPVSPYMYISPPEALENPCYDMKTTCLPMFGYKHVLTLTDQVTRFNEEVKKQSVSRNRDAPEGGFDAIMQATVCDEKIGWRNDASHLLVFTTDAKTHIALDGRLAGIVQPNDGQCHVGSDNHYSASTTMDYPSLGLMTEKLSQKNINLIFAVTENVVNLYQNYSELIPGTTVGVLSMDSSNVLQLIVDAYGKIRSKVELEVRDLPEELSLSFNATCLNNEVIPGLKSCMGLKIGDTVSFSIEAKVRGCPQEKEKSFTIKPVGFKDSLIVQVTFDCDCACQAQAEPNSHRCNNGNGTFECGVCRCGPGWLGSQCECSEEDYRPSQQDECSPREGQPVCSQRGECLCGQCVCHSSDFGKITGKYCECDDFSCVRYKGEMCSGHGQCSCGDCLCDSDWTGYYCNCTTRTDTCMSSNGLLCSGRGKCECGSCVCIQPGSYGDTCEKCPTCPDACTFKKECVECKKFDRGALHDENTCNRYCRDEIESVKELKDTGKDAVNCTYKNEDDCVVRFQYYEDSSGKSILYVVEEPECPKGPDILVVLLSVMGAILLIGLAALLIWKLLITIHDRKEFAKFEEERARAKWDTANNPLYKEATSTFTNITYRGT

Another data set has as its system H5V endothelial cells. In words: Cell detachment (rounding) assay, H5V. In kind it is cell-based, mouse. The protocol:
(§1) H5V cells were cultured as monolayers in 3-cm dish for 24-48 h, and further incubated for 1 h with 100 μM RGD-4C at 4° C. or 37° C. The cells were washed once and re-incubated for three hours with fresh culture medium at 37° C. In the same fashion, HUVEC were cultured as monolayers in 6-well plate pre-coated with gelatin for 48 h, and incubated for 1 h with 100 μM RGD-4C at 37° C. The cells were washed once and re-incubated for 24 h with fresh culture medium at 37° C. The morphological changes of the cells were documented using light microscopy.
The biological effect of RGD-4C binding was characterized in H5V cells and Human Umbilical Vein Endothelial Cells (HUVEC) using the cell-rounding assay described in Materials and Methods. The morphological changes of the cells were documented using light microscopy. […] This effect was reversible as the cells recovered following 3 h re-incubation with fresh culture medium (8% rounded cells in dishes with previous presence of RGD-4C versus 6% in the absence of RGD-4C).

Another data set concerns HUVEC. In words: Cell detachment (rounding) assay, HUVEC. Type of data set: cell-based, human. The settings on record: 100 μM RGD-4C; recovery after 24 h in fresh medium. The protocol:
as §1

Data set [5] in a line: Solubilization for in vitro experiments (water solubility). Type of data set: physicochemical. As to the method: Compound 24 was dissolved in 100% DMSO before use and diluted in saline to a final DMSO concentration of 5% v/v.
Another data set has as its target αvβ5 and αvβ3 integrins. The settings on record: read-out: affinity constant; reports by others; cited from earlier work.
Data set [6] deals with tumor grafts of mouse CT26luc colon carcinoma. In words: Biodistribution (Pd by ICP-MS) in mice with CT26luc colon carcinoma grafts. In kind it is in vivo, CD1 nude male mice. The settings on record: 8 hours post injection. As to the method:
Anesthetized mice were i.v. injected (tail vein) with the different photosensitizer (pigment) conjugates (control group: untreated). The mice were sacrificed at indicated time points and samples of the indicated organs and tissues (blood, tumor, intestine, liver, spleen, kidneys, testies, heart, lung, brain, skin, muscle and fat) were placed in pre-weighted vials and immediately frozen and stored at −20° in the dark until analyzed. Three methods were used for sample preparation: (1) Each sample was thawed and homogenized in DDW (1:10 w/v). Aliquots of the homogenate (500 μl) were lyophilized in Eppendorf test tubes. […] Pd concentrations were determined by ICP-MS. According to method (3), the supernatants were diluted in methanol by a factor of two and the drug concentration was determined by fluorescence measurements (Varian-Cary Eclipse spectrofluorimeter, Palo Alto, Calif., USA) at 750 nm (peak values). Drug concentrations were interpolated from a fluorescence calibration curve, based on predetermined drug concentrations using absorption spectroscopy. […]
The conjugates of the invention are potential drug carriers. […] In order to quantify the conjugate levels in target tissues, Ion Coupled Plasma-Mass Spectroscopy (ICP-MS) was used for tracing the central M atom (e.g., Pd, Cu) in the target organ. […]

Where no end group is shown, it is not given here.

As for “3^1-oxo-15-methoxycarbonylmethyl-Rhodobacteriochlorin 13^1-(2-sulfoethyl)amide-17^3-(cycloRGDfK)amide potassium salt [Conjugate 13]”, in data set [1] (90 days after treatment), the “whole-body red fluorescence (tumor) signal after PDT” value is recorded as “No signal was detected 90 days after treatment”. Moreover, the “local tumor response to PDT” value in data set [1] (illuminated 8 h later, 755 nm, 100 mW/cm^2, 10 min) is “after 90 days the wound healed and the animal was cured”. Also, the “accumulation in the tumor (NIR fluorescence)” value in [2] (15 min to 24 hr post injection, tumor size ~1 cm^3, potassium salt) is recorded as “no specific accumulation in the tumor during the first 24 hours”. Also, in data set [2] (day 1 to 6 post injection), the “accumulation in the tumor (NIR fluorescence)” value was “reaching peak concentration specifically in the tumor from day 2 post injection”. Moreover, in data set [3], the “peak concentration in the tumors” value is recorded as 11 μg drug/gr tumor tissue, the “peak tumor level as share of the initial drug dose” value is listed as “about 3.0%”, the “time of peak concentrations in the tumors” value is listed as “eight hours post-injection” and the “time to clear to nearly background levels in normal tissues” value is listed as “less than 72 hours”. For the same substance, the “time of peak levels in the normal tissues examined” value in [3] (blood, liver, kidney) is listed as “less than five minutes post-injection”.
In the case of “the cyclic nonapeptide CDCRGDCFC-NH2 (disulfide (positions not given here)) [RGD-4C]”, in data set [4], the “reduction of Eu-RGD-4C binding to the isolated receptor” value is 50%. For the same substance, the “rounded cells (cell detachment from the dish)” value in the data set with H5V endothelial cells (100 μM RGD-4C, n=200) was 99%. In addition, the “rounded cells after 3 h re-incubation with fresh culture medium” value in the data set on H5V endothelial cells (previous presence of RGD-4C, 37° C.) was 8%. For the same substance, the HUVEC detachment entry in the data set on HUVEC was “induced HUVEC detachment from the dish in a reversible manner”. In addition, the water solubility result in [5] was “Water insoluble”. Moreover, the Kd at αvβ5 and αvβ3 integrins was approximately 0.1 µM.
For the substance “Palladium 3^1-oxo-15-methoxycarbonylmethyl-Rhodobacteriochlorin 13^1-(2-sulfoethyl)amide-17^3-(cycloRADfK)amide potassium salt [Conjugate 42]”, the “concentrations in the tumor tissue and blood” value in [6] was “quite the same”.

(Values after patent US10689415B2, “Conjugates of RGD peptides and (bacterio)chlorophyll photosensitizers” (YEDA RESEARCH AND DEVELOPMENT COMPANY LTD., priority 2006, dated 2020).)
